Results as given in patent US20180186880A1 (TRELLIS BIOSCIENCE, published 2018).

T1: TIM-3 ECD (extracellular domain of T cell immunoglobulin and mucin domain 3 protein) (UniProt Q8TDQ0 22-202, limits assumed)
T1 construct: extracellular domain; also called CD366
T1 sequence (looked up): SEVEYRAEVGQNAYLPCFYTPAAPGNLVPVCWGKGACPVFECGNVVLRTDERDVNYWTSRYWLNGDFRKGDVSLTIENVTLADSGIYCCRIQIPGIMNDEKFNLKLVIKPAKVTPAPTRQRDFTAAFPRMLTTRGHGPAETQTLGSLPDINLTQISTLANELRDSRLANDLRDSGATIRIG


Target: T1, TIM-3 ECD (extracellular domain of T …)
Test: adsorption ELISA on TIM-3 ECD, serial dilutions of purified mAb, estimate of binding affinity
Procedure: Purified mAbs were tested in adsorption ELISA using TIM-3 ECD, generated by Trellis in mammalian cells.

| Affinity | Binder |
| --- | --- |
| 28 nM | TRL6120 (antibody, V domains shown, Lambda light chain; also called TIM-3 TRLmAb 6120) VH: QVQLVESGGGVVQPGRSLRLSCVASGFIFRTYAMHWVRQAPGKGLEWVAVIWPDGSERYYSDSTKGRFTVSRDNSKNTLFLQMNSLRVDDTAMYYCFARGYSDSDYADHWGRGTRVTVSS VL: DIVMTQSPSVSVSPGQTARITCSGDALSTKFAYWYQQKSGQAPVLVIYEDNKRPSGIPERFSGSGSGTMATLSVSEAQVEDEADYYCFSSDSSGNLFMFGGGTKLTVL |
| 5 nM | TRL6042 (antibody, V domains shown, Native human mAb produced recombinantly; Kappa light chain; also called TIM-3 TRLmAb 6042) VH: QVQLVESGAEVKKPGESLKISCEGSGYKFTSYWIGWVRQMPGRGPEWMGLIYPSDSDTRYSPSFRGQVTISVDKTISTAYLQWSSLKTSDTAIYYCARLLLATECTSDSCFGDAFDIWGQGTMVTVSS VL: DIVLTQSPTFLSASVGDRVTITCRASQGISSYLAWYQQKPGKAPKLLLYAASTLQSGVPSRFSGSRSGTEFTLTISSLQPEDFASYYCQQFHNYPFTFGGGTKVEIKR |
| 0.011 nM | TRL6099 (antibody, V domains shown, Lambda light chain) VH: QVQLVESGAEVKKPGASVKVSCKAFNYTFTSYGISWVRQTPEHGLEWMGWITNSNSNSAQKFQGRVSMTTDTSTSTAYMQLRSLSSDDTAVYYCARIYIDYNNYGLDVWGQGTTVTVSS VL: not shown |
| 0.005 nM | TRL6061 (antibody, V domains shown, Lambda light chain) VH: QVQLVESGGGVVQPGRSLRLSCAASGFMFSTSAMHWVRQTPGKGLEWLAVIWHDGSEKYYADSVKGRFSISRDNYRDTLYLQMNNLRVEDTAIYYCRGGDVYEIWGQGTMVAVSS VL: DDIMLTQPPSVSVSPGQTARITCSGDAVAKRYVYWYQQKSGQAPVLVMYEDNKRPSGIPERFSGSSSGTKATLTITGALVEDEADYYCYSTDSSGNLGAFGGGSKLTVL |
